This is an account of results in paper PMC2575792.

The target of this experiment is T1, ICAM-1 fused to monomeric EGFP (mEGFP) or to mRFP1, P05362.
T1 chain: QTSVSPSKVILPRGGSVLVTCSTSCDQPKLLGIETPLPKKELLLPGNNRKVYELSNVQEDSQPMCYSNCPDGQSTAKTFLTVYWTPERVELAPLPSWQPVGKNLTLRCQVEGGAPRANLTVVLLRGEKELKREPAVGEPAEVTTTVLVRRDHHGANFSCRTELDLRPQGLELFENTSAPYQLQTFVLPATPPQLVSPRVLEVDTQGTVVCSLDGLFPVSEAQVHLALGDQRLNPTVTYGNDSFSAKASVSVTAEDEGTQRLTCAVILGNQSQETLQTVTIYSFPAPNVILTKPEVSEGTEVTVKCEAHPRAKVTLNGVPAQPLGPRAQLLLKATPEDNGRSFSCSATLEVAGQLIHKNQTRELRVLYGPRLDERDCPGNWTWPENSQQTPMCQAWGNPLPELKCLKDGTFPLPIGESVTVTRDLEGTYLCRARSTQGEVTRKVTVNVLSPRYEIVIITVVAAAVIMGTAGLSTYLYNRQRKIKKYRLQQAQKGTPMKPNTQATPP
As to the kind of experiment: FRET or BRET. The note with it: remark: other sources report otherwise.

B1: ICAM-1 fused to monomeric EGFP (mEGFP) or to mRFP1, P05362 28-532 (receptor)
chain: T1 chain
As to B1, the FRET efficiency fell in the range of 14 to 34% and the percent of pixels with positive FRET was found to be 12%.
